B1: anti-TfR^2/BACE1 bispecific antibody (15G11.W92A arm, human IgG1 D265A N297G, knob in hole) (bispecific antibody, part only; not given: Anti-BACE1 arm and constant regions, V domains shown, not shown: another chain or arm of the molecule; a dimerising Fc or GST; small tags and cut ends)
VH: EVQLVQSGAEVKKPGASVKVSCKASGYTFTSYWMHWVRQAPGQRLEWIGEINPTNGRTNYIEKFKSRATLTVDKSASTAYMELSSLRSEDTAVYYCARGTRAYHYWGQGTMVTVSS
VL: DIQMTQSPSSLSASVGDRVTITCRASDNLYSNLAWYQQKPGKSPKLLVYDATNLADGVPSRFSGSGSGTDYTLTISSLQPEDFATYYCQHFAGTPLTFGQGTKVEIK
B2: antiTfR.52A.M108L.Fab (Fab, V domains shown)
VH: EVQLVQSGAEVKKPGASVKVSCKASGYTFTSYWMHWVRQAPGQRLEWIGEIAPTNGRTNYIEKFKSRATLTVDKSASTAYMELSSLRSEDTAVYYCARGTRAYHYWGQGTLVTVSS
VL: DIQMTQSPSSLSASVGDRVTITCRASDNLYSNLAWYQQKPGKSPKLLVYDATNLADGVPSRFSGSGSGTDYTLTISSLQPEDFATYYCQHFWGTPLTFGQGTKVEIK
notes: Fab; also called anti-TfR Fab comprising the M108L mutation
B3: anti-TfR^1/BACE1 bispecific antibody (15G11.v5 arm, human IgG1 D265A N297G, knob in hole) (bispecific antibody, part only; not given: Anti-BACE1 arm and constant regions, V domains shown, not shown: another chain or arm of the molecule; a dimerising Fc or GST; small tags and cut ends)
VH: EVQLVQSGAEVKKPGASVKVSCKASGYTFTSYWMHWVRQAPGQRLEWIGEINPTNGRTNYIEKFKSRATLTVDKSASTAYMELSSLRSEDTAVYYCARGTRAYHYWGQGTMVTVSS
VL: DIQMTQSPSSLSASVGDRVTITCRASDNLYSNLAWYQQKPGKSPKLLVYDATNLADGVPSRFSGSGSGTDYTLTISSLQPEDFATYYCQHFWGTPLTFGQGTKVEIK
B4: Hu15G11.HC52A Fab (Fab, V domains shown)
VH: EVQLVQSGAEVKKPGASVKVSCKASGYTFTSYWMHWVRQAPGQRLEWIGEIAPTNGRTNYIEKFKSRATLTVDKSASTAYMELSSLRSEDTAVYYCARGTRAYHYWGQGTMVTVSS
VL: DIQMTQSPSSLSASVGDRVTITCRASDNLYSNLAWYQQKPGKSPKLLVYDATNLADGVPSRFSGSGSGTDYTLTISSLQPEDFATYYCQHFWGTPLTFGQGTKVEIK
notes: Fab; also called antiTfR.52A.Fab; 15G11.52A Fab

Experiments:
[1] = molecular target: Human TfR extracellular domain containing an N-terminal His tag (human) (UniProt P02786); experiment: SPR, bispecific antibody
Human TfR extracellular domain containing an N-terminal His tag (human), sequence (P02786 89-760 G142S): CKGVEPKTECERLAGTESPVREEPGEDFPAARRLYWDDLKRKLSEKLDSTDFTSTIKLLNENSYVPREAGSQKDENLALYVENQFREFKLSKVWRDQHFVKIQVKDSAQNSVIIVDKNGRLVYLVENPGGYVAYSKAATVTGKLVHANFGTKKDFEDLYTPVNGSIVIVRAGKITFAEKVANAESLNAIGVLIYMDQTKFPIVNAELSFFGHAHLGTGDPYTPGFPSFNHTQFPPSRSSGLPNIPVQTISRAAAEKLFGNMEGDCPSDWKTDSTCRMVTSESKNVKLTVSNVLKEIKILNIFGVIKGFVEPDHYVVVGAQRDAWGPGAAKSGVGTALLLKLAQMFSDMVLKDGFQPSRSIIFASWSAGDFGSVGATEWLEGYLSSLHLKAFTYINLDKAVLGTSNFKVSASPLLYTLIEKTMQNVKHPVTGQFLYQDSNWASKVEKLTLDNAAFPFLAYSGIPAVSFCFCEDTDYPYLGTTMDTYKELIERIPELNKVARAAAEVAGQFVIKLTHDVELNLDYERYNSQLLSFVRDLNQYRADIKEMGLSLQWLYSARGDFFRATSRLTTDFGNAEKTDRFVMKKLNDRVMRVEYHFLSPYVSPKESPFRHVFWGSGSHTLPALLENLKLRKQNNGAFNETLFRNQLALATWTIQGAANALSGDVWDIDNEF

[2] = molecular target: Human TfR extracellular domain containing an N-terminal His tag (human) (UniProt P02786); experiment: SPR, monovalent, TfR captured via anti-His, bispecific injected
[3] = molecular target: T1, TfR (species and construct not stated, Table 13) (Homo sapiens (Human), UniProt P02786 89-760); experiment: kinetic measurement, method not stated
T1 construct: not shown: N-terminal His tag of the soluble TfR ecd construct
T1 sequence (P02786 89-760 G142S limits assumed): as the sequence (P02786 89-760 G142S) above

Binder | Kd [1] | Kd [2] | koff [2] | kon [2] | koff [3] | kon [3]
B1 | 270 nM | 295 nM | 0.0377 s⁻¹ | 128000 M⁻¹ s⁻¹ | – | –
B2 | – | – | – | – | 0.0231 s⁻¹ | 320000 M⁻¹ s⁻¹
B3 | 10 nM | – | – | – | – | –
B4 | – | – | – | – | 0.0204 s⁻¹ | 371000 M⁻¹ s⁻¹
